Results as given in patent US20240360228A1 (BIOLEGEND, published 2024).

Experiments:
[1] = biological target: T1, human chemokine (C-C motif) receptor 8 (CCR8) (human, UniProt P51685 1-355); test: cell-based or functional assay
[2] = biological target: T1, human chemokine (C-C motif) receptor 8 …; test: flow cytometry blocking, PBMC CCR8+ CD4+ cells; competitor PE-AB1 (its MFI is read)
Method: (§1) For blocking studies, 100 μL of the cell suspension were incubated with 10 μg purified isotype control, AB1, AB2, AB3, AB4, AB5, AB8, AB9, AB10, AB11, AB12, AB13, AB14, AB15, and Commercial ABI antibodies, or isotype control, as blocking agents.
(§2) After incubation with the blocking agent, the cells were incubated with 0.25 μg of the indicated PE-conjugated antibody plus anti-human CD4 APC or anti-human CD3 for another 15 minutes in the dark and then washed 2 times with Cell Staining Buffer, and acquired in a FACSCanto II flow cytometer (BD Biosciences); the data was analyzed using FCS Express (De Novo Software); MFI correspond to the CCR8+ CD4+ lymphocytes or CCR8+ CD3+ lymphocytes.
(§3) Percentage original MFI was calculated by dividing the MFI of samples blocked with AB1, AB2, AB3, AB4, AB5, AB6, AB7, AB8, AB9, AB10, AB11, AB12, AB13, AB14, AB15, and Commercial ABI antibodies, by the MFI of samples blocked with the corresponding isotype control. This value was subtracted from 100 to get a blocking percentage. The formula is shown below: […]

[3] = biological target: T1, human chemokine (C-C motif) receptor 8 …; test: flow cytometry blocking, PBMC CCR8+ CD4+ cells; competitor PE-AB2 (its MFI is read)
Method: as §1, §2, §3

[4] = biological target: T1, human chemokine (C-C motif) receptor 8 …; test: flow cytometry blocking, PBMC CCR8+ CD4+ cells; competitor PE-AB3 (its MFI is read)
Method: as §1, §2, §3

[5] = biological target: T1, human chemokine (C-C motif) receptor 8 …; test: flow cytometry blocking, PBMC CCR8+ CD4+ cells; competitor PE-AB4 (its MFI is read)
Method: as §1, §2, §3

[6] = biological target: T1, human chemokine (C-C motif) receptor 8 …; test: flow cytometry blocking, PBMC CCR8+ CD4+ cells; competitor PE-AB5 (its MFI is read)
Method: as §1, §2, §3

[7] = biological target: T1, human chemokine (C-C motif) receptor 8 …; test: flow cytometry blocking, PBMC CCR8+ CD4+ cells; competitor PE-AB6 (its MFI is read)
Method: as §1, §2, §3

[8] = biological target: T1, human chemokine (C-C motif) receptor 8 …; test: flow cytometry blocking, PBMC CCR8+ CD4+ cells; competitor PE-AB10 (its MFI is read)
Method: as §1, §2, §3

[9] = biological target: T1, human chemokine (C-C motif) receptor 8 …; test: flow cytometry blocking, PBMC CCR8+ CD4+ cells; competitor PE-AB11 (its MFI is read)
Method: as §1, §2, §3

[10] = biological target: T1, human chemokine (C-C motif) receptor 8 …; test: flow cytometry blocking, PBMC CCR8+ CD4+ cells; competitor PE-AB12 (its MFI is read)
Method: as §1, §2, §3

[11] = biological target: T1, human chemokine (C-C motif) receptor 8 …; test: flow cytometry blocking, PBMC CCR8+ CD4+ cells; competitor PE-AB13 (its MFI is read)
Method: as §1, §2, §3

[12] = biological target: T1, human chemokine (C-C motif) receptor 8 …; test: flow cytometry blocking, PBMC CCR8+ CD4+ cells; competitor PE-AB14 (its MFI is read)
Method: as §1, §2, §3

[13] = biological target: T1, human chemokine (C-C motif) receptor 8 …; test: flow cytometry blocking, PBMC CCR8+ CD4+ cells; competitor PE-AB15 (its MFI is read)
Method: as §1, §2, §3

[14] = biological target: T1, human chemokine (C-C motif) receptor 8 …; test: flow cytometry blocking, PBMC CCR8+ CD4+ cells; competitor PE-ABII (its MFI is read)
Method: as §1, §2, §3

T1 sequence (P51685 whole entry): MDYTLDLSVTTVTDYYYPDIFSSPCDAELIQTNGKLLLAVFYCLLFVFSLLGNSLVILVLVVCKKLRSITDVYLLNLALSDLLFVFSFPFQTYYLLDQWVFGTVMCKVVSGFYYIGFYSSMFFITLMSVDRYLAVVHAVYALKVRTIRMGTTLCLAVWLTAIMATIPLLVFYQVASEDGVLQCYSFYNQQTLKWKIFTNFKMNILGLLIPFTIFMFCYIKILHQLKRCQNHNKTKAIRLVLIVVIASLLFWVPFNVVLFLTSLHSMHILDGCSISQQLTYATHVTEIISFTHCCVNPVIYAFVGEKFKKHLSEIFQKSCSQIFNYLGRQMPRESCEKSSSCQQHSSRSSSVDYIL

Binder	% hCCR8-Ba/F3 - THP-1 complexes [1] [%]	% Blocking [2] [%]	MFI [2]	% Blocking [3] [%]	MFI [3]	% Blocking [4] [%]	MFI [4]	% Blocking [5] [%]	MFI [5]	% Blocking [6] [%]	MFI [6]	% Blocking [7] [%]	MFI [7]	% Blocking [8] [%]	MFI [8]	% Blocking [9] [%]	MFI [9]	% Blocking [10] [%]	MFI [10]	% Blocking [11] [%]	further results
AB14 (antibody, V domains shown, Hybridoma monoclonal; also called antibody 14; clone 14) VH: EVQLVESGGGLVQPKGSLKLSCAASGFTFNTYAMNWVRQAPGKGLEWVARIRSKSNNYATYYVDSVKDRFTISRDDSQSMLYLQINNLKTEDTAMYYCVRGRELGPYSAMDYWGQGTSVTVSS VL: DIVMTQAAPSVPVTPGESVSISCRSSKSLLHSNGNTYLYWFLQRPGQSPQLLIYRMSNLASGVPDRFSGSGSGTAFTLRISRVEAEDVGLYYCMQHLEYPFTFGGGTKLEIK	0.97	-39.8	916	-32.6	888	-23.3	855	-39.4	951	-29.2	969	-23.3	966	28.6	720	44.4	501	43.3	553	38.4	MFI [11]: 577; % Blocking [12]: -237%; MFI [12]: 2980; % Blocking [13]: -218%; MFI [13]: 2520; % Blocking [14]: 9.26%; MFI [14]: 1000
AB1 (antibody, V domains shown, Hybridoma monoclonal (mice or rats immunised); Used purified and PE-conjugated; also called antibody 1; clone 1) VH: QVQLKESGPGLVKPSETLSLTCTVSGFSLTSYHISWVRQPPGKGLEWMGVIWGDGSKTYNSALKSRLSISRDTSKSQVFLKMRSLKTEDTATYYCARGGDSGFAYWGQGTLVTVSS VL: DIQMTQSPASLSASLEEIVTITCQASQDIGNWLSWYQQKPGKSPQLLIYGTTNLADGVPSRFSGSRSGTQYSLKISRLQVEDIGIYYCLQAYSVPLTFGSGTKLEIK	0.6	28.8	467	46.8	356	48.3	359	100	0	25.7	557	40.2	469	0.2	1010	-4.76	944	-6.83	1040	1.62	MFI [11]: 921; % Blocking [12]: 6.44%; MFI [12]: 829; % Blocking [13]: 1.66%; MFI [13]: 780; % Blocking [14]: 2.87%; MFI [14]: 1080
AB3 (antibody, V domains shown, Hybridoma monoclonal; also called antibody 3; clone 3) VH: QVQLKESGPGLVKPSETLSLTCTVSGFSLTSYHISWVRQPPGKGLEWMGVIWGDGKTTYNSALKSRLSISRDTSKSQVFLKMNSLKTEDTATYYCARGGDSGFAYWGQGTLVTVSS VL: DIQMTQSPASLSASLEEIVTITCQASQDIGNWLSWYQQKPGKSPQLLIYGTTNLADGVPSRFSGSRSGTQYSLKISRLQVEDIGIYYCLQAYSVPLTFGSGTKLEIK	0.74	36.5	416	37	422	100	0	34.6	446	38.8	459	45.5	427	-1.1	1020	-4.37	941	-7.35	1050	7.12	MFI [11]: 870; % Blocking [12]: -2.68%; MFI [12]: 910; % Blocking [13]: -10.2%; MFI [13]: 874; % Blocking [14]: 3.05%; MFI [14]: 1070

Further lines, with some results ahead:

% hCCR8-Ba/F3 - THP-1 complexes [1] [%]	% Blocking [2] [%]	MFI [2]	% Blocking [3] [%]	MFI [3]	% Blocking [4] [%]	MFI [4]	% Blocking [5] [%]	MFI [5]	% Blocking [6] [%]	MFI [6]	% Blocking [7] [%]	MFI [7]	% Blocking [8] [%]	MFI [8]	% Blocking [9] [%]	MFI [9]	% Blocking [10] [%]	MFI [10]	% Blocking [11] [%]	Binder	further results
1.56	-45.4	953	-46.8	983	-27.5	885	-54.7	1060	-36.2	1020	-24.1	973	5.71	950	23.6	689	-5.38	1030	14.2	AB12 (antibody, V domains shown, Hybridoma monoclonal; also called antibody 12; clone 12) VH: EVQLVESGGGLVQPKGSLKLSCAASGFAFNTYAMNWVRQAPGKGLEWIARLRSKSNFYATYYADSVKDRFTISRDDSQSMLYLQMNNLKTEDTAVYYCVRGRELGPSYAMDYWGQGTSVTVSS VL: DIVMTQAAPSVPVTPGESVSISCRSSKSLLHSNGNTYLYWFLQRPGQSPQLLIYRMSNLASGVPDRFSGSGSGTAFTLRISRVEAEDVGVYYCMQHLEYPYTFGGGTKLEIK	MFI [11]: 803; % Blocking [12]: 100%; MFI [12]: 0; % Blocking [13]: 7.39%; MFI [13]: 734; % Blocking [14]: 22.9%; MFI [14]: 854
0.47	-61.8	1060	-45.2	972	-38.4	961	-41.9	969	-32.8	995	-26.3	990	-32.5	1340	39.5	545	-21.6	1190	2.16	AB10 (antibody, V domains shown, Hybridoma monoclonal; also called antibody 10; clone 10) VH: EVQLVETGGGLVQPKGSLKLSCAVSGFTFKTNAMNWVRQAPGKGLEWVARIRSKSNKYATYYADSVKDRFTISRDDSQSMLYLQMNNLKTEDTAMYYCVRGSEMGYYYAMDYWGQGTSVTVSS VL: DIVMTQAAPSVPVTPGESVSISCRSSKSLLHSNGNTYLYWFLQRPGQSPQLLIYRMSNLASGVPDRFSGSGSGTAFTLRISRVEAEDVGVYYCMQHLEYPFTFGGGTKLEIK	MFI [11]: 916; % Blocking [12]: 27.5%; MFI [12]: 642; % Blocking [13]: -0.06%; MFI [13]: 793; % Blocking [14]: 15%; MFI [14]: 942
0.43	100	0	45.8	363	48.2	359	-61.4	1100	45.1	411	47.3	413	-12.2	1130	-13.3	1020	-4.04	1020	-3.67	AB4 (antibody, V domains shown, Hybridoma monoclonal; also called antibody 4; clone 4) VH: QVQLKESGPGLVKPSETLSLTCTVSGFSLTGYHVSWVRQPPGKGLEWMGVIWGDGRTTYNSALKSRLSISRDTSKSQVFLKMSSLKTEDTATYYCARGGDSGFAYWGQGTLVTVSS VL: DIQMTQSPASLSASLEEIVTITCQASQDIGNWLSWYQQKPGKSPQLLIYGATSLADGVPSRFSGSRSGTQFSLKISRLQVEDIGIYYCLQAYIVPLTFGSGTKLESK	MFI [11]: 971; % Blocking [12]: 0.97%; MFI [12]: 878; % Blocking [13]: -7.83%; MFI [13]: 855; % Blocking [14]: -7.57%; MFI [14]: 1190
